Measured values as given in publication PMC2583105 (The EMBO Journal, 2008).
Residues, ends and D or L forms follow the SMILES beside them.

Assays:
[1] = target: LatB-bound G-actin (rabbit skeletal muscle actin) (Oryctolagus cuniculus, UniProt P68135); experiment: Fluorescence anisotropy assay of RPEL^MAL:G-actin interaction; type: binding; conditions: ratio of Kd values from fluorescence anisotropy
[2] = target: FITC-conjugated 'RPEL2-like' RPEL3^MAL peptide, G171/P172 replaced by E and R (mouse); experiment: fluorescence polarisation
[3] = target: FITC-conjugated RPEL2^MAL peptide, E130A (mouse); experiment: fluorescence polarisation
[4] = target: FITC-conjugated RPEL2^MAL peptide, MAL(111–142), wild type (mouse); experiment: fluorescence polarisation
[5] = target: FITC-conjugated RPEL1^MAL peptide, R81 and R82 both to alanine (mouse); experiment: fluorescence polarisation
[6] = target: FITC-conjugated RPEL1^MAL peptide, alanine at R82 (the position of the conserved RPEL proline) (mouse); experiment: fluorescence polarisation
[7] = target: FITC-conjugated RPEL2^MAL peptide, P126 replaced with arginine (mouse); experiment: fluorescence polarisation
[8] = target: FITC-conjugated RPEL1^MAL peptide, E86A (mouse); experiment: fluorescence polarisation
[9] = target: FITC-conjugated RPEL2^MAL peptide, P126A (mouse); experiment: fluorescence polarisation
[10] = target: FITC-conjugated RPEL1^MAL peptide, R81A (mouse); experiment: fluorescence polarisation
[11] = target: FITC-conjugated RPEL1^MAL peptide, MAL(67–98), wild type (mouse); experiment: fluorescence polarisation
[12] = target: FITC-conjugated RPEL3^MAL peptide, MAL(155–186), wild type (mouse); experiment: fluorescence polarisation
[13] = target: FITC-conjugated RPEL1^MAL peptide, α2^AAA mutant (mouse); experiment: fluorescence polarisation

Molecule | Fold reduction of actin-binding affinity relative to the wild-type peptide [1] [fold] | Kd [2] [µM] | Kd [3] [µM] | Kd [4] [µM] | Kd [5] [µM] | Kd [6] [µM] | Kd [7] [µM] | Kd [8] [µM] | Kd [9] [µM] | Kd [10] [µM] | Kd [11] [µM] | Kd [12] [µM] | Kd [13] [µM]
CC[C@H](C)[C@H](NC(=O)CNC(=O)[C@H](CCC(N)=O)NC(=O)[C@H](CO)NC(=O)[C@@H](NC(=O)[C@H](CC(C)C)NC(=O)[C@H](CCC(=O)O)NC(=O)[C@H](CCC(=O)O)NC(=O)[C@H](CCCNC(=N)N)NC(=O)[C@@H](NC(=O)[C@H](C)NC(=O)[C@H](CCCNC(=N)N)NC(=O)[C@H](CCC(N)=O)NC(=O)[C@H](CCC(N)=O)NC(=O)[C@H](CC(C)C)NC(=O)[C@H](CCCCN)NC(=O)[C@H](CC(C)C)NC(=O)[C@H](CCC(N)=O)NC(=O)[C@H](CC(C)C)NC(=O)[C@@H](NC(=O)[C@H](CC(N)=O)NC(=O)[C@H](CCCCN)NC(=O)[C@H](CCCNC(=N)N)NC(=O)[C@H](CCC(=O)O)NC(=O)[C@H](CO)NC(=O)[C@H](CC(C)C)NC(=S)Nc1ccc2c(c1)C(=O)OC21c2ccc(O)cc2Oc2cc(O)ccc21)C(C)C)[C@@H](C)O)C(C)C)C(=O)N[C@@H](CCSC)C(=O)N1CCC[C@H]1C(=O)N1CCC[C@H]1C(=O)N[C@@H](CC(C)C)C(=O)N[C@@H](CCCCN)C(=O)N[C@@H](CO)C(=O)O [RPEL1 R82A] (HELM PEPTIDE1{[O=C1OC2(c3ccc(O)cc3Oc3cc(O)ccc32)c2ccc(NC(=S)[*:2])cc21].L.S.E.R.K.N.V.L.Q.L.K.L.Q.Q.R.A.T.R.E.E.L.V.S.Q.G.I.M.P.P.L.K.S}$$$$V2.0; C-terminus assumed) | 3.5 | – | – | – | – | – | – | – | – | – | – | – | –
CC[C@H](C)[C@H](NC(=O)[C@H](CCCCN)NC(=O)[C@H](CCCNC(=N)N)NC(=O)[C@H](CCCCN)NC(=O)[C@H](CC(C)C)NC(=O)[C@H](Cc1ccc(O)cc1)NC(=O)[C@H](CC(=O)O)NC(=O)[C@H](CCC(=O)O)NC(=O)[C@@H](NC(=O)[C@H](CCCNC(=N)N)NC(=O)[C@H](C)NC(=O)[C@H](CCCNC(=N)N)NC(=S)Nc1ccc2c(c1)C(=O)OC21c2ccc(O)cc2Oc2cc(O)ccc21)[C@@H](C)O)C(=O)N[C@@H](CCCNC(=N)N)C(=O)N[C@@H](CO)C(=O)N[C@@H](CCCNC(=N)N)C(=O)N[C@@H](C)C(=O)N[C@@H](CCC(=O)O)C(=O)N[C@@H](CCCNC(=N)N)C(=O)N[C@@H](C)C(=O)N[C@@H](CCC(=O)O)C(=O)N[C@@H](CC(C)C)C(=O)N[C@H](C(=O)N[C@@H](CCCNC(=N)N)C(=O)N[C@@H](CCSC)C(=O)N[C@@H](Cc1c[nH]cn1)C(=O)N[C@H](C(=O)N[C@@H](CC(C)C)C(=O)N[C@@H](CCC(=O)O)C(=O)N[C@@H](CCC(=O)O)C(=O)N[C@H](C(=O)N[C@@H](CO)C(=O)N[C@@H](C)C(=O)O)[C@@H](C)O)[C@@H](C)CC)C(C)C [RPEL2 P126A] (HELM PEPTIDE1{[O=C1OC2(c3ccc(O)cc3Oc3cc(O)ccc32)c2ccc(NC(=S)[*:2])cc21].R.A.R.T.E.D.Y.L.K.R.K.I.R.S.R.A.E.R.A.E.L.V.R.M.H.I.L.E.E.T.S.A}$$$$V2.0; C-terminus assumed) | 16 | – | – | – | – | – | – | – | – | – | – | – | –
rabbit skeletal muscle G-actin bound to latrunculin B (LatB) and ATP (from UniProt P68135 1-377) (natural protein) | – | 4.8 | 1.9 | 1.9 | 44.5 | 3.7 | 19.5 | 2.7 | 30.8 | 17.7 | 1 | 28.9 | 24
